Results reported in article PMC6450059.
pKd: −log10 of the molar value. Blank lines part the entries; values can stand above or below the substance they belong to.

Assays:
[1] = target: PmScsCΔLinker (Proteus mirabilis); experiment: crystal structure; PmScsCΔLinker 40 mg ml^-1 in 10 mM HEPES pH 7.4, 150 mM NaCl; 0.1 M HEPES pH 7, 32%(v/v) Jeffamine M-600; 293 K; space group H32, one protomer in the asymmetric unit, trimer through crystallographic symmetry
[2] = target: PmScsCΔLinker (Proteus mirabilis); experiment: SAXS; PmScsCΔLinker, concentration series 0.1-10.0 mg ml^-1 in 10 mM HEPES pH 7.4, 150 mM NaCl, 283 K; linear combination of monomer, dimer and trimer scattering curves, global (common K d and K t) and independent optimization; K d: monomers and dimer; K t: monomer, dimer and trimer
[3] = target: Suppressor of copper sensitivity protein C from Proteus mirabilis (PmScsC) (Proteus mirabilis); experiment: SAXS; native PmScsC, concentration series 0.1-10.0 mg ml^-1 in 10 mM HEPES pH 7.4, 150 mM NaCl, 283 K; linear combination of monomer and trimer scattering curves, global (common K t) and independent optimization; K t: monomers and trimer

Substance: PmScsCΔLinker (enzyme)
stoichiometry N [1]: 3
K t (equilibrium constant for trimer formation, from monomer and dimer) [2]: 730 µM
pKd [2]: 3.68
dimer fraction at 0.1 mg/ml (global optimization) [2]: 0.03
dimer fraction at 0.1 mg/ml (independent optimization) [2]: 0
dimer fraction at 0.5 mg/ml (global optimization) [2]: 0.12
dimer fraction at 0.5 mg/ml (independent optimization) [2]: 0
dimer fraction at 2.0 mg/ml (global optimization) [2]: 0.27
dimer fraction at 2.0 mg/ml (independent optimization) [2]: 0.33
dimer fraction at 5.0 mg/ml (global optimization) [2]: 0.41
dimer fraction at 5.0 mg/ml (independent optimization) [2]: 0.37
dimer fraction at 10.0 mg/ml (global optimization) [2]: 0.48
dimer fraction at 10.0 mg/ml (independent optimization) [2]: 0.49
monomer fraction at 0.1 mg/ml (global optimization) [2]: 0.97
monomer fraction at 0.1 mg/ml (independent optimization) [2]: 1
monomer fraction at 0.5 mg/ml (global optimization) [2]: 0.88
monomer fraction at 0.5 mg/ml (independent optimization) [2]: 0.94
monomer fraction at 2.0 mg/ml (global optimization) [2]: 0.71
monomer fraction at 2.0 mg/ml (independent optimization) [2]: 0.67
monomer fraction at 5.0 mg/ml (global optimization) [2]: 0.53
monomer fraction at 5.0 mg/ml (independent optimization) [2]: 0.55
monomer fraction at 10.0 mg/ml (global optimization) [2]: 0.4
monomer fraction at 10.0 mg/ml (independent optimization) [2]: 0.37
trimer fraction at 0.1 mg/ml (global optimization) [2]: 0
trimer fraction at 0.1 mg/ml (independent optimization) [2]: 0
trimer fraction at 0.5 mg/ml (global optimization) [2]: 0
trimer fraction at 0.5 mg/ml (independent optimization) [2]: 0.06
trimer fraction at 2.0 mg/ml (global optimization) [2]: 0.02
trimer fraction at 2.0 mg/ml (independent optimization) [2]: 0
trimer fraction at 5.0 mg/ml (global optimization) [2]: 0.07
trimer fraction at 5.0 mg/ml (independent optimization) [2]: 0.08
trimer fraction at 10.0 mg/ml (global optimization) [2]: 0.12
trimer fraction at 10.0 mg/ml (independent optimization) [2]: 0.1

K t (equilibrium constant for trimer formation, monomers and trimer) [3]: 6.3e-18 M^2
monomer fraction at 0.1 mg/ml (global optimization) [3]: 0.01
monomer fraction at 0.1 mg/ml (independent optimization) [3]: 0.21
monomer fraction at 0.5 mg/ml (global optimization) [3]: 0
monomer fraction at 0.5 mg/ml (independent optimization) [3]: 0.04
monomer fraction at 2.0 mg/ml (global optimization) [3]: 0
monomer fraction at 2.0 mg/ml (independent optimization) [3]: 0
monomer fraction at 5.0 mg/ml (global optimization) [3]: 0
monomer fraction at 5.0 mg/ml (independent optimization) [3]: 0
monomer fraction at 10.0 mg/ml (global optimization) [3]: 0
monomer fraction at 10.0 mg/ml (independent optimization) [3]: 0
stoichiometry N [3]: 3
trimer fraction at 0.1 mg/ml (global optimization) [3]: 0.99
trimer fraction at 0.1 mg/ml (independent optimization) [3]: 0.79
trimer fraction at 0.5 mg/ml (global optimization) [3]: 1
trimer fraction at 0.5 mg/ml (independent optimization) [3]: 0.96
trimer fraction at 2.0 mg/ml (global optimization) [3]: 1
trimer fraction at 2.0 mg/ml (independent optimization) [3]: 1
trimer fraction at 5.0 mg/ml (global optimization) [3]: 1
trimer fraction at 5.0 mg/ml (independent optimization) [3]: 1
trimer fraction at 10.0 mg/ml (global optimization) [3]: 1
trimer fraction at 10.0 mg/ml (independent optimization) [3]: 1
Substance: Suppressor of copper sensitivity protein C from Proteus mirabilis (PmScsC) (enzyme)
